Reference: the supplement of paper PMC10724198
± gives the standard deviation of the averaged measurements.

Test system: Saccharomyces cerevisiae
Test: protein stability index of tFT-peptide fusion (C-terminal peptide) (PSI (0-1 scale)); higher = more stable (slower turnover)
Conditions: temperature: 30 C
Experimental: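 MPS profiling in S. cerevisiae of the yeast C-terminome library: the last 12 aa of each annotated ORF are fused to the C-terminus of a sfGFP-mCherry timer, after a GGGS linker. Cells are FACS-sorted into 8 mCherry/sfGFP bins and deep-sequenced. PSI runs from 0 (unstable) to 1 (stable); wild type and das1Δ backgrounds, two technical replicates each.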

[1] = genetic background: das1 deletion

| Sequence | protein stability index [1] | protein stability index (genetic background: wild type) |
| --- | --- | --- |
| GYCKVHPVSDSK [ASI1 C-terminal 12 aa] | 0.706 ± 0.0072 | 0.656 ± 0.036 |
| RGDDGESYAYLA [CDC53 C-terminal 12 aa] | 0.69274 ± 0.00042 | 0.691 ± 0.0089 |
| TDYTRIIKMQSS [SWD1 C-terminal 12 aa] | 0.701 ± 0.013 | 0.251 ± 0.0049 |
| RRKITLIEDDEE [SAS3 C-terminal 12 aa] | 0.715 ± 0.011 | 0.672 ± 0.019 |
| GYAKTWSIASAN [CTT1 C-terminal 12 aa] | 0.714 ± 0.011 | 0.674 ± 0.028 |
| SGPVEELVSPSK [IRC8 C-terminal 12 aa] | 0.7034 ± 0.0033 | 0.685 ± 0.032 |
| YLKNYFKTKHII [ERV25 C-terminal 12 aa] | 0.702 ± 0.018 | 0.185 ± 0.0056 |
| PPPPSRKCGTPK [LDB17 C-terminal 12 aa] | 0.713 ± 0.038 | 0.7238 ± 0.0025 |
| MEDEDMVDVIID [ESC2 C-terminal 12 aa] | 0.689 ± 0.02 | 0.7232 ± 0.0017 |
| IRKPDDKFSSFI [YOR072W C-terminal 12 aa] | 0.702 ± 0.0082 | 0.706 ± 0.032 |
| GIDVHYVFRTYH [CIN10 C-terminal 12 aa] | 0.704 ± 0.012 | 0.6311 ± 0.0031 |
| RHSMSEEELEMY [KTR4 C-terminal 12 aa] | 0.689 ± 0.034 | 0.685 ± 0.044 |
| PFGNGFKMNFGL [JEM1 C-terminal 12 aa] | 0.736 ± 0.038 | 0.677 ± 0.058 |
| STTKQQSQEAVA [YHL026C C-terminal 12 aa] | 0.704 ± 0.027 | 0.689 ± 0.054 |
| IYSVTKKRNTRI [RSF2 C-terminal 12 aa] | 0.725 ± 0.026 | 0.693 ± 0.092 |
| APEEEAYKPNQN [KRR1 C-terminal 12 aa] | 0.708 ± 0.0089 | 0.671 ± 0.012 |
| GFLGIRWGPRKD [TIM21 C-terminal 12 aa] | 0.7247 ± 0.00099 | 0.6861 ± 0.006 |
| KLIHIPIRYVIV [SSS1 C-terminal 12 aa] | 0.424 ± 0.03 | 0.3647 ± 0.00092 |
| PSSKAPSPGVNT [TEM1 C-terminal 12 aa] | 0.677 ± 0.017 | 0.64 ± 0.026 |
| SGKRGVGKTDFR [NOG1 C-terminal 12 aa] | 0.716 ± 0.00084 | 0.6901 ± 0.00098 |
| PLPDLDEDDGEE [DOM34 C-terminal 12 aa] | 0.686 ± 0.0069 | 0.704 ± 0.041 |

| Sequence | protein stability index [1] | protein stability index (genetic background: wild type) |
| --- | --- | --- |
| RTLTTGNYHGLA [SYP1 C-terminal 12 aa] | 0.6833 ± 0.0056 | 0.6781 ± 0.0046 |
| DRVGEVFAKLFG [NNR2 C-terminal 12 aa] | 0.7119 ± 0.0012 | 0.728 ± 0.011 |
| IWKKVPETKRSG [VPS73 C-terminal 12 aa] | 0.707 ± 0.019 | 0.669 ± 0.022 |
| APDNGPTVEEVD [SSA4 C-terminal 12 aa] | 0.69 ± 0.0087 | 0.662 ± 0.023 |
| VLLTILLFIQAY [SPO19 C-terminal 12 aa] | 0.1801 ± 0.0012 | 0.19 ± 0.0039 |
| AAKYLNSLSVNQ [PTP1 C-terminal 12 aa] | 0.698 ± 0.029 | 0.686 ± 0.043 |
| PKGGNYVSRYQR [THO2 C-terminal 12 aa] | 0.695 ± 0.012 | 0.6623 ± 0.0015 |
| DSERKVLSEALL [KAP114 C-terminal 12 aa] | 0.676 ± 0.013 | 0.6846 ± 0.0027 |
| KALQKAMGSVQF [YEL1 C-terminal 12 aa] | 0.702 ± 0.018 | 0.687 ± 0.03 |
| SVEEAFQLKSFD [LAA1 C-terminal 12 aa] | 0.713 ± 0.0014 | 0.715 ± 0.056 |
| SKREFIESLRPK [SKG1 C-terminal 12 aa] | 0.707 ± 0.029 | 0.679 ± 0.03 |
| FSTWDIADKQEA [PMT2 C-terminal 12 aa] | 0.717 ± 0.016 | 0.732 ± 0.023 |
| TAPLIQRKNKKN [RPN8 C-terminal 12 aa] | 0.741 ± 0.037 | 0.355 ± 0.022 |
| KGGRLSSKPIIM [SPT3 C-terminal 12 aa] | 0.683 ± 0.019 | 0.686 ± 0.034 |
| HLYDHILEKMVK [CNM67 C-terminal 12 aa] | 0.694 ± 0.032 | 0.7 ± 0.018 |
| VAKAEKLAAEAN [ATP2 C-terminal 12 aa] | 0.684 ± 0.03 | 0.705 ± 0.022 |
| SQVLPESERRLD [ATG22 C-terminal 12 aa] | 0.675 ± 0.013 | 0.676 ± 0.03 |
| NLELGGLNMDFL [PGD1 C-terminal 12 aa] | 0.7171 ± 0.0022 | 0.708 ± 0.047 |
| IFKSLIAKKVQS [BPL1 C-terminal 12 aa] | 0.69 ± 0.001 | 0.433 ± 0.033 |
| LKNGDKPHLLKF [RPL6B C-terminal 12 aa] | 0.714 ± 0.038 | 0.686 ± 0.015 |
| SLCKNTIISSSV [YAL063C-A C-terminal 12 aa] | 0.693 ± 0.023 | 0.703 ± 0.035 |

| Sequence | protein stability index [1] | protein stability index (genetic background: wild type) |
| --- | --- | --- |
| NLEFETEHNVTN [NDC80 C-terminal 12 aa] | 0.677 ± 0.012 | 0.708 ± 0.013 |
| EFKCMSVITAQQ [SEH1 C-terminal 12 aa] | 0.67622 ± 0.00052 | 0.687 ± 0.025 |
| VDALQIQYNRRP [SCD5 C-terminal 12 aa] | 0.681 ± 0.013 | 0.692 ± 0.033 |
| TTDEEVKEKKKR [GLE2 C-terminal 12 aa] | 0.6893 ± 0.0049 | 0.692 ± 0.028 |
| LMESEREARRLR [RPS28A C-terminal 12 aa] | 0.708 ± 0.01 | 0.6762 ± 0.0022 |
| IDDKSDQEESLQ [MAF1 C-terminal 12 aa] | 0.706 ± 0.0079 | 0.664 ± 0.067 |
| STSDFELDDLED [YPL264C C-terminal 12 aa] | 0.6965 ± 0.0052 | 0.729 ± 0.026 |
| HDHHNDVPEAPV [RAD1 C-terminal 12 aa] | 0.6941 ± 0.0012 | 0.692 ± 0.022 |
| DDEIDSEEDENA [SDD3 C-terminal 12 aa] | 0.69 ± 0.035 | 0.653 ± 0.018 |
| LNRKWYTRFFFP [MNN10 C-terminal 12 aa] | 0.732 ± 0.012 | 0.702 ± 0.035 |
| EKVRNEGFIKNP [GPM2 C-terminal 12 aa] | 0.716 ± 0.03 | 0.702 ± 0.075 |
| ERNKKSRPPIYK [ARL3 C-terminal 12 aa] | 0.734 ± 0.03 | 0.735 ± 0.09 |
| EAQLTRKQAPPV [COS9 C-terminal 12 aa] | 0.7035 ± 0.004 | 0.699 ± 0.015 |
| LTTISLYLMLKL [YGL262W C-terminal 12 aa] | 0.382 ± 0.021 | 0.351 ± 0.0079 |
| KYKFYDDENLTE [SOL1 C-terminal 12 aa] | 0.72 ± 0.017 | 0.733 ± 0.081 |
| HLTKLCIFPGLP [YLR282C C-terminal 12 aa] | 0.68857 ± 5.1e-05 | 0.70209 ± 0.00069 |
| KVNGDIYRLPPS [MBA1 C-terminal 12 aa] | 0.6888 ± 0.001 | 0.677 ± 0.0092 |
| NSNKKKGFKSRR [DRS1 C-terminal 12 aa] | 0.682 ± 0.017 | 0.732 ± 0.0088 |
| DTCKSVLYCSTS [YMR193C-A C-terminal 12 aa] | 0.694 ± 0.022 | 0.65 ± 0.0067 |
| QIVGLLKLLASI [PEX15 C-terminal 12 aa] | 0.68 ± 0.036 | 0.405 ± 0.038 |
| EFMKTNTGSKKV [CCR4 C-terminal 12 aa] | 0.703 ± 0.027 | 0.677 ± 0.03 |

| Sequence | protein stability index [1] | protein stability index (genetic background: wild type) |
| --- | --- | --- |
| FKKSVDQMNAST [PSY2 C-terminal 12 aa] | 0.692 ± 0.026 | 0.691 ± 0.017 |
| KHVGKGCGYSYH [STP4 C-terminal 12 aa] | 0.696 ± 0.024 | 0.6985 ± 0.0052 |
| ADRASVEIIDAN [PFA3 C-terminal 12 aa] | 0.705 ± 0.021 | 0.7046 ± 0.0057 |
| DVHDDVESDDEI [ALF1 C-terminal 12 aa] | 0.6961 ± 0.0065 | 0.7005 ± 0.0059 |
| HSSYDRPMIIKN [UBP15 C-terminal 12 aa] | 0.685 ± 0.056 | 0.662 ± 0.025 |
| ISICILDLASHL [YBL071C C-terminal 12 aa] | 0.6703 ± 0.0038 | 0.669 ± 0.018 |
| IQINKGDNIFKN [YTM1 C-terminal 12 aa] | 0.688 ± 0.026 | 0.732 ± 0.025 |
| FFVFLFWWIFLK [SEC22 C-terminal 12 aa] | 0.155 ± 0.019 | 0.131 ± 0.015 |
| NGINNSSATYKI [ULA1 C-terminal 12 aa] | 0.7027 ± 0.0063 | 0.71 ± 0.038 |
| ALNRADKMSTIG [URH1 C-terminal 12 aa] | 0.676 ± 0.027 | 0.6665 ± 0.0042 |
| VPEEQRIKRRKI [IRC4 C-terminal 12 aa] | 0.705 ± 0.037 | 0.3 ± 0.035 |
| LEEETLPPSQKK [PYC2 C-terminal 12 aa] | 0.694 ± 0.013 | 0.647 ± 0.02 |
| AVVLQSIQFTSE [IML3 C-terminal 12 aa] | 0.621 ± 0.018 | 0.608 ± 0.024 |
| VVNKYLKENGYY [APE2 C-terminal 12 aa] | 0.705 ± 0.02 | 0.6615 ± 0.0031 |
| NNDDSANDLIDR [CCH1 C-terminal 12 aa] | 0.649 ± 0.013 | 0.681 ± 0.02 |
| DILLSCIADLTI [POL2 C-terminal 12 aa] | 0.71 ± 0.04 | 0.707 ± 0.054 |
| NTMGKSGRHNIT [YOR282W C-terminal 12 aa] | 0.6851 ± 0.0044 | 0.685 ± 0.032 |
| LFFQDIERFFSC [YMR194C-A C-terminal 12 aa] | 0.7717 ± 0.0042 | 0.7619 ± 0.0028 |
| QPINLDSISDDL [DRE2 C-terminal 12 aa] | 0.7068 ± 0.0039 | 0.766 ± 0.12 |
